Test results as given in publication PMC5261807 (2017).
Non-standard residues stand in square brackets, D forms with d. Primed or numbered codes have the meaning given here. No end group written: not given here. Me2s″ = symmetric dimethylarginine (Rme2s); Arg(Me2a) = CN(C)C(=N)NCCC[C@H](N)C(=O)O; Lys(Me3) = C[N+](C)(C)CCCC[C@H](N)C(=O)O; Arg(Me2s) = CN=C(NC)NCCC[C@H](N)C(=O)O; pT = C[C@@H](OP(=O)(O)O)[C@H](N)C(=O)O; Lys(Me2) = CN(C)CCCC[C@H](N)C(=O)O; pS = N[C@@H](COP(=O)(O)O)C(=O)O; Lys(Me) = CNCCCC[C@H](N)C(=O)O

Legend:
[1] = target: T1, Bdf1 bromodomain 1 (GST-tagged, WT) (Saccharomyces cerevisiae (strain ATCC …, UniProt P35817)); assay: histone peptide array probed with recombinant GST-bromodomain, signal normalised to myc peptide control
T1 chain: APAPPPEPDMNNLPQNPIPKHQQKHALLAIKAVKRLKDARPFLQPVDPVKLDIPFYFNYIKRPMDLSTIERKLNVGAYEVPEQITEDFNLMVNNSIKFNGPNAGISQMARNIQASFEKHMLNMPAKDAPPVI

[2] = target: T2, Bdf1 bromodomain 2 (GST-tagged, WT) (Saccharomyces cerevisiae (strain ATCC …, UniProt P35817)); assay: as above
T2 chain: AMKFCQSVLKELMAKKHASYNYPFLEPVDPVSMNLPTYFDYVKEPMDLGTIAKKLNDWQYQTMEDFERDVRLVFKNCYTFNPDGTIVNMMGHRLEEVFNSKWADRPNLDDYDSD

Binder | binding score [1] | binding score [2]
PRKQLATKAAR[Lys(Me)]SAPATGG | 0 | 0
ARTKQTARKSTGGKAPRKQ (A R T K Q T A R Kac pS T G G K A P R K Q) | 0 | 0
SGRGKGGKGLGKGGAKRHR (S G R G K G G K G L G Kac G G A K R H R) | 0.00448 | 0.0271
A[Arg(Me2s)]T[Lys(Me)]QTA[Arg(Me2s)][Lys(Me2)]STGGKAPRKQ | 0.00197 | 0
ARTKQTARKSTGGKAPRKQ (A Rme2a T Kme3 Q T A R Kac S T G G K A P R K Q) | 0.00628 | 0.00758
PRKQLATKAA[Arg(Me2s)][Lys(Me3)]SAPATGG | 5.8e-17 | 0
PRKQLATKAARK(Me)[pS]APATGG | 0.0151 | 0
ARTKQTARKSTGGKAPRKQ (A R T Kme2 Q T A Rme2a Kme3 S T G G K A P R K Q) | 0 | 0
SGRGK(Ac)QGGK(Ac)ARAKAKSRSS | 0.0332 | 0.141
ARTKQTARKSTGGKAPRKQ (A R T Kme1 Q T A Rme2s Kme3 S T G G K A P R K Q) | 0 | 0
A[Arg(Me2a)]T[Lys(Me2)]QTA[Arg(Me2a)][Lys(Me2)]STGGKAPRKQ | 0.00126 | 0
ARTKQTARKSTGGKAPRKQ (A Rme2s T Kac Q T A R Kme3 S T G G K A P R K Q) | 0.00412 | 0
PRKQLATKAA[Arg(Me2s)]K(Ac)SAPATGG | 0.00843 | 0.081
PRKQLATKAAR(Me2s″)K[pS]APATGG | 0 | 0
PRKQLATKAA[Arg(Me2s)][Lys(Me2)][pS]APATGG | 0.017 | 0
SGRGKGGKGLGKGGAKRHR (S G Rme2s G K G G K G L G K G G A K R H R) | 0.00646 | 0
ARTKQTARKSTGGKAPRKQ (A R T K Q T A R K pS T G G Kac A P R K Q) | 0.0299 | 0.115
ARTKQTARKSTGGKAPRKQ (A Rme2s T Kme2 Q T A Rme2a Kac S T G G K A P R K Q) | 0.0108 | 0.0107
SGRGKQGGKARAK(Ac)AKSRSS | 0.00932 | 0.0115

Binder | binding score [1] | binding score [2]
ARTKQTARKSTGGKAPRKQ (A R T Kme1 Q T A Rme2a Kme1 S T G G K A P R K Q) | 0.0154 | 0
ARTKQTARKSTGGKAPRKQ (A R T K Q T A R K pS T G G K A P R K Q) | 0 | 0
ARTKQTARKSTGGKAPRKQ (A Rme2s T Kac Q T A Rme2s K S T G G K A P R K Q) | 0 | 0.00876
ARTK(Ac)QTA[Arg(Me2s)][Lys(Me)]STGGKAPRKQ | 0.0242 | 0.00148
ARTKQTA[Arg(Me2a)][Lys(Me3)]S[pT]GGKAPRKQ | 0 | 0
ARTKQTARKSTGGKAPRKQ (A R T K Q T A R Kme3 pS T G G K A P R K Q) | 0 | 0
ARTKQTARKSTGGKAPRKQ (A R T Kme3 Q T A Rme2a Kme3 S T G G K A P R K Q) | 0.00538 | 0
A[Arg(Me2a)]TK(Ac)QTARK(Ac)STGGKAPRKQ | 0.0911 | 0.0627
SGRGKGGKGLGKGGAKRHR (pS G Rme2a G Kac G G Kac G L G K G G A K R H R) | 0.0927 | 0.206
ARTKQTARKSTGGKAPRKQ (A R T K Q T A Rme2s K S T G G K A P R K Q) | 0.00305 | 0
ARTKQTARKSTGGKAPRKQ (A Rme2a T Kme2 Q T A Rme2s Kme1 S T G G K A P R K Q) | 0.0163 | 0
ARTKQTARKSTGGKAPRKQ (A R T K Q T A R Kme3 S T G G Kac A P R K Q) | 0.0133 | 0.0479
ARTKQTARKSTGGKAPRKQ (A Rme2a T Kme1 Q T A Rme2a Kme1 S T G G K A P R K Q) | 0 | 0
SGRGKGGKGLGKGGAKRHR (S G Rme2s G Kac G G Kac G L G Kac G G A K R H R) | 0.391 | 0.605
ARTKQTARKSTGGKAPRKQ (A Rme2a T Kme1 Q T A Rme2a K S T G G K A P R K Q) | 0.00341 | 0.00443
A[Arg(Me2a)]T[Lys(Me2)]QTA[Arg(Me2s)][Lys(Me3)]STGGKAPRKQ | 0.0167 | 0
A[Arg(Me2a)][pT]K(Me)QTARKSTGGKAPRKQ | 0.00412 | 0.00207
A[Arg(Me2s)]T[Lys(Me3)]QTA[Arg(Me2a)][Lys(Me)]STGGKAPRKQ | 0 | 0
ARTKQTARKSTGGKAPRKQ (A R T K Q T A Rme2a Kme2 S pT G G K A P R K Q) | 0.00323 | 0
